According to patent US20130059782:

Molecular target: full-length TF his-tag modified protein in yeast-derived microvesicles (TT-173): mature hTF with Asn124Ala mutation and six histidines at the C-terminus

B1: activated coagulation Factor VII (purified commercial FVIIa) (protein)
chain: ANAFLEELRPGSLERECKEEQCSFEEAREIFKDAERTKLFWISYSDGDQCASSPCQNGGSCKDQLQSYICFCLPAFEGRNCETHKDDQLICVNENGGCEQYCSDHTGTKRSCRCHEGYSLLADGVSCTPTVEYPCGKIPILEKRNASKPQGRIVGGKVCPKGECPWQVLLLVNGAQLCGGTLINTIWVVSAAHCFDKIKNWRNLIAVLGEHDLSEHDGDEQSRRVAQVIIPSTYVPGTTNHDIALLRLHQPVVLTDHVVPLCLPERTFSERTLAFVRFSLVSGWGQLLDRGATALELMVLNVPRLMTQDCLQQSRKVGDSPNITEYMFCAGYSDGSKDSCKGDSGGPHATHYRGTWYLTGIVSWGQGCATVGHFGVYTRVSQYIEWLQKLMRSEPRPGVLLRAPFP
amidolytic activity of the TF:FVIIa complex (chromogenic substrate S-2288), TT-173 with or without added PS: there was no appreciable differences in the amidolytic activity between TT-173 with or without PS at the three concentrations of TT-173 tested, and at both concentrations of FVIIa used, 50 nM (not shown) or 500 nM (FIG. 7)
